# Reference: PMC4264766, “Purification, Cloning, Characterization, and N-Glycosylation Analysis of a Novel β-Fructosidase from Aspergillus oryzae FS4 Synthesizing Levan- and Neolevan-Type Fructooligosaccharides” (PLoS ONE, 2014)
# B1: N.BfrA (native β-fructosidase BfrA) (Aspergillus oryzae) (protein)
# chain: IDYNAAPPNLSTLANGSLYDTWRPRAHILPPNGRIGDPCGHYTDPDTGLFHVGFLYNGSGIAGATTDDMVRFRDLNPNGSQFIMPGGKNDPVAVFDGSVIPKGIDDKPTLLYTSVTSLPIHWSIPYNPGAETQSLAVTSNGGRNFTKLDRPPVIPLPPSDSDVTAFRDPYAFQSPELDAAADSAPGTWYTAISGGVHEDGPGQFLYRQDQKEMSLESWEYLGLWWQEKVNTTWGNGDWAGGWGFNFETGNVFGLNEEGYSVDGEMFMTLGTEGSGTPIVSQVSSIHDMLWAAGNVSNNGNVTFTPTMAGVFDWGASGYAAAGHILPATSQVSTKSGAPDRFISFVWLTGDLFEQAKGYPTSQQNWVGTLLLPRELHIKTISNVVDNELAREEGSSWRVERGQSGIELKTLGIDIARETREALMSGPKITEPERTSKEAGLVPFQVSPTTKFHVLTAQLSFPRSARNSDLQAGFQVLSSDLESTTIYYQFSNESIIVDRSNTSAAAKTTNGIVSTNESGRLRLFDLQGDAQEIETLDLTVVVDNSVLEIYANGRFALSTWARSWYKNSTDIKFYHNGAGEVTFSNVTVSEGLFEAWPERV
# notes: native, purified from A. oryzae FS4 mycelia; N-glycosylated; 95 kDa by SDS-PAGE, monomer; CDS 1860 bp; mature 65298 Da calculated; 40 kDa contaminant band
# Substrate: OC[C@H]1O[C@@](CO)(O[C@H]2O[C@H](CO)[C@@H](O)[C@H](O)[C@H]2O)[C@@H](O)[C@@H]1O
# Experiment: initial rates, glucose release by glucose assay kit, confirmed by HPLC; Michaelis-Menten fit
# Assay type: biochemical, Aspergillus oryzae
# Conditions: total activity (glucose release), 55°C, potassium phosphate buffer, 0.005–0.5 M sucrose
protein,measurement,value
B1,Km,37.19 ± 5.28 mM
same,Vmax,1.28e+08 µM/min/mg
same,kcat,10000 ± 390 s⁻¹
same,kcat/Km,269000 ± 39700 M⁻¹ s⁻¹
